Data from patent US7067618B1, “Medicinal preparations” (Kyowa Hakko Kogyo Co., Ltd., priority 1998, dated 2006).

Columns and labels:
[1] = Release of sialyllactose from insulin-sialyllactose reaction products caused by pH lowering (HPLC); format: physicochemical; conditions: for Proportion by HPLC, Release of Sialyllactose Caused by pH Lowering to 5.3: pH 5.3, 40° C.; for Proportion by HPLC, Release of Sialyllactose Caused by pH Lowering to 6.4: pH 6.4, 40° C.
Procedure: Bovine pancreatic insulin (0.2 mg, Wako Pure Chemical Industries, Ltd.) was dissolved in 1 mL of a 1 mmol/L aqueous solution of hydrochloric acid. To about 25 mg of sialyllactose of 75% purity (a mixture of 3′-sialyllactose and 6′-sialyllactose, Boehringer Mannheim GmbH) was added 0.1 mL of a 600 mmol/L aqueous solution of disodium hydrogenphosphate to make a solution. The insulin solution (0.1 mL) and the sialyllactose solution (0.1 mL) were mixed in a test tube to give a mixture having a pH of about 7.8. The test tube was put into a constant temperature water bath at 40° C. to cause reaction and left for 3 days. The reaction mixture was sampled intermittently, followed by centrifugation at 3000 rpm for 20 minutes to remove insoluble materials. The samples collected 0, 1 and 3 days after the start of the reaction were analyzed for products obtained by the reaction of insulin with sialyllactose by HPLC under the following conditions. • Column: YMC-Pack ODS-AP, 4.6×150 mm • Mobile phase: 20 mmol/L phosphate buffer (pH 8.0) containing 0.001% Triton X-100: acetonitrile containing 0.001% Triton X-100=411 parts by volume: 140 parts by volume • Flow rate: 1.3 mL/minute • Detection wavelength: 220 nm
(§1) Bovine pancreatic insulin (0.2 mg, Wako Pure Chemical Industries, Ltd.) was dissolved in 1 mL of a 1 mmol/L aqueous solution of hydrochloric acid. To about 25 mg of sialyllactose of 75% purity (a mixture of 3′-sialyllactose and 6′-sialyllactose, Boehringer Mannheim GmbH) was added 0.1 mL of a 600 mmol/L aqueous solution of disodium hydrogenphosphate to make a solution. The insulin solution (0.1 mL) and the sialyllactose solution (0.1 mL) were mixed in a test tube to give a solution having a pH of about 7.8. This solution was subjected to reaction at 40° C. for 3 days and then centrifuged at 3000 rpm for 20 minutes. To 40 μL of the supernatant was added 0.04 mL of a 50 mmol/L-aqueous solution of citric acid to adjust the pH to 6.4, and the resulting solution was subjected to reaction at 40° C. The reaction mixture was intermittently sampled and analyzed for products obtained by the reaction of insulin with sialyllactose by HPLC in a manner similar to that in Example 2.
as §1, with “centrifuged 1” for “centrifuged”, “100 mmol/L aqueous” for “50 mmol/L-aqueous”, “5.3,” for “6.4,”

[2] = Release of lactose from insulin-lactose reaction products caused by pH lowering (HPLC); format: physicochemical; conditions: for Proportion by HPLC, Release of Lactose Caused by pH Lowering to 5.0: pH 5.0, 40° C.; for Proportion by HPLC, Release of Lactose Caused by pH Lowering to 5.9: pH 5.9, 40° C.; for Proportion by HPLC, Release of Lactose Caused by pH Lowering to 6.7: pH 6.7, 40° C.
Procedure: A solution of 0.2 mg of bovine pancreatic insulin (Wako Pure Chemical Industries, Itd.) in 1 mL of a 2 mmol/L aqueous solution of hydrochloric acid, a solution of 320 mg of anhydrous β-lactose (Nacalai Tesque, Inc.) in 2 mL of distilled water, and 1 mL of a 200 mmol/L phosphate buffer (pH 8.4) were mixed in a test tube to give a mixture having a pH of about 8.1. The test tube was put into a constant temperature water bath at 40° C. to cause reaction. The reaction mixture was sampled after 0, 5 and 24 hours, and analyzed for products obtained by the reaction of insulin with lactose by high performance liquid chromatography (HPLC) under the following conditions. • Column: YMC-Pack ODS-A or YMC-Pack ODS-AM, 6.0×150 mm • Mobile phase: 100 mmol/L phosphate buffer (pH 8.0) containing 0.001% Triton X-100: acetonitrile containing 0.001% Triton X-100=25 parts by volume: 9 parts by volume • Flow rate: 1.3 mL/minute • Detection wavelength: 210 nm
(§2) A solution of 0.2 mg of bovine pancreatic insulin (Wako Pure Chemical Industries, Itd.) in 1 mL of a 2 mmol/L aqueous solution of hydrochloric acid, a solution of 320 mg of anhydrous β-lactose (Nacalai Tesque, Inc.) in 2 mL of distilled water, and 1 mL of a 200 mmol/L phosphate buffer (pH 8.4) were mixed in a test tube. The mixture was subjected to reaction at 40° C. for 24 hours. To 3 mL of the resulting solution was added 0.5 mL of a 50 mmol/L aqueous solution of citric acid to adjust the pH to 6.7, and the mixture was subjected to reaction at 40° C. The samples collected from the reaction mixture 0 and 30 minutes after the start of the reaction were analyzed for products obtained by the reaction of insulin with lactose by HPLC in a manner similar to that in Example 1.
as §2, with “100” for “50”, “5.9,” for “6.7,”, “The” for “The samples collected from the”, “was intermittently” for “0 and 30 minutes after the start of the reaction were”
as §2, with “a 150” for “a 50”, “to 5.0,” for “to 6.7,”, “The” for “The samples collected from the”, “mixture was intermittently sampled” for “mixture 0”, “and” for “and 30 minutes after the start of the reaction were”

Substance: Insulin: bovine pancreatic insulin (Wako Pure Chemical Industries); free insulin to which no sugar is bound
- Proportion by HPLC, Release of Sialyllactose Caused by pH Lowering to 5.3 ([1]; 0 minute): 31%
- Proportion by HPLC, Release of Sialyllactose Caused by pH Lowering to 5.3 ([1]; 10 minutes): 58%
- Proportion by HPLC, Release of Sialyllactose Caused by pH Lowering to 5.3 ([1]; 30 minutes): 80%
- Proportion by HPLC, Release of Sialyllactose Caused by pH Lowering to 6.4 ([1]; 0 minute): 31%
- Proportion by HPLC, Release of Sialyllactose Caused by pH Lowering to 6.4 ([1]; 10 minutes): 44%
- Proportion by HPLC, Release of Sialyllactose Caused by pH Lowering to 6.4 ([1]; 30 minutes): 50%
- Proportion by HPLC, Release of Lactose Caused by pH Lowering to 5.0 ([2]; 0 minute): 21%
- Proportion by HPLC, Release of Lactose Caused by pH Lowering to 5.0 ([2]; 2 minutes): 60%
- Proportion by HPLC, Release of Lactose Caused by pH Lowering to 5.0 ([2]; 10 minutes): 83%
- Proportion by HPLC, Release of Lactose Caused by pH Lowering to 5.0 ([2]; 30 minutes): 93%
- Proportion by HPLC, Release of Lactose Caused by pH Lowering to 5.0 ([2]; 60 minutes): 95%
- Proportion by HPLC, Release of Lactose Caused by pH Lowering to 5.9 ([2]; 0 minute): 24%
- Proportion by HPLC, Release of Lactose Caused by pH Lowering to 5.9 ([2]; 2 minutes): 35%
- Proportion by HPLC, Release of Lactose Caused by pH Lowering to 5.9 ([2]; 10 minutes): 59%
- Proportion by HPLC, Release of Lactose Caused by pH Lowering to 5.9 ([2]; 30 minutes): 76%
- Proportion by HPLC, Release of Lactose Caused by pH Lowering to 5.9 ([2]; 60 minutes): 75%
- Proportion by HPLC, Release of Lactose Caused by pH Lowering to 6.7 ([2]; 0 minute): 25%
- Proportion by HPLC, Release of Lactose Caused by pH Lowering to 6.7 ([2]; 30 minutes): 45%
